Measured values published in patent US20250340626A1 (INTERVET, published 2025).

T1: canine NGF receptor TrkA ECD-canine Fc fusion protein (canine)
T1 construct: also called cTrkA-ECD-IgG-B Fc fusion protein; canine TrkA-IgGBFc fusion protein
T1 chain: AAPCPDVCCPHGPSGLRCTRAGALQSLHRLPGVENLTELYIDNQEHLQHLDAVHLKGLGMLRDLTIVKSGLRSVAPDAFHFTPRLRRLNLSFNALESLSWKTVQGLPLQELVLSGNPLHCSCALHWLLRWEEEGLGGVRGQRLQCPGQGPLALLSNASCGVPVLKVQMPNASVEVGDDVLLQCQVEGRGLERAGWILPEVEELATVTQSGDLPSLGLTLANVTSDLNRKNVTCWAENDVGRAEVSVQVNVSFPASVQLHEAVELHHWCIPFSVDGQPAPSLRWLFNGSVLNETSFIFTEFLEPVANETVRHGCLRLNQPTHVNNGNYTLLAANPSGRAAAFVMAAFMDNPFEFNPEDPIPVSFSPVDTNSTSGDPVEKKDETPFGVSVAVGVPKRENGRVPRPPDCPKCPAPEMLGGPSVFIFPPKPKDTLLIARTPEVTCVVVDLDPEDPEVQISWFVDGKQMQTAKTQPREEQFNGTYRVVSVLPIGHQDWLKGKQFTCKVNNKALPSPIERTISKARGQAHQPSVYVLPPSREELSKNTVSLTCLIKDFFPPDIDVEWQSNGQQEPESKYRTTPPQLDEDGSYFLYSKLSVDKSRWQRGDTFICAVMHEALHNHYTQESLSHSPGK

B1: canine NGF (ligand)
chain: SSSHPVFHRGEFSVCDSVSVWVGDKTTATDIKGKEVMVLGEVNINNSVFKQYFFETKCRDPTPVDSGCRGIDSKHWNSYCTTTHTFVKALTMDGKQAAWRFIRIDTACVCVLSRKAGRRA
notes: also called canine Nerve Growth Factor; cNGF

Columns and labels:
[1] = molecular target: B1; experiment: ELISA, canine NGF coated, anti-dog IgG Fc-HRP detection
Description: The binding of chimeric and caninized antibodies to canine NGF was determined by ELISA as follows: [0132] 1. Coat 100 ng/well canine NGF in an immunoplate and incubate the plate at 4° C. overnight. [0133] 2. Wash the plate 3 times by PBS with 0.05% Tween 20 (PBST). [0134] 3. Block the plate by 0.5% BSA in PBS for 45-60 min at room temperature. [0135] 4. Wash the plate 3 times by PBST. [0136] 5. Make 3-fold dilution the antibodies in each column or row of dilution plate. [0137] 6. Transfer the diluted antibodies into each column or row of the immunoplate, and incubate the plate for 45-60 min at room temperature. [0138] 7. Wash the plate 3 times by PBST. [0139] 8. Add 1:2000 diluted horseradish peroxidase labeled anti-dog IgG Fc into each well of the plate and incubate the plate for 45-60 min at room temperature. [0140] 9. Wash the plate 3 times by PBST. [0141] 10. Add TMB Substrate into each well of the plate and incubate the plate for 10 to 15 min at room temperature for color development. [0142] 11. Add 100 μL of 1.5 M phosphoric acid into each well to stop the reaction. [0143] 12. Read the plate at 450 nm with 540 nm reference wavelength.

[2] = molecular target: human TrkA on TF-1 cells (human, UniProt P04629 33-796); experiment: cell-based or functional assay
[3] = molecular target: T1, canine NGF receptor TrkA ECD-canine Fc …; experiment: ELISA, canine NGF on canine TrkA receptor

Sequence of human TrkA on TF-1 cells (P04629 33-796): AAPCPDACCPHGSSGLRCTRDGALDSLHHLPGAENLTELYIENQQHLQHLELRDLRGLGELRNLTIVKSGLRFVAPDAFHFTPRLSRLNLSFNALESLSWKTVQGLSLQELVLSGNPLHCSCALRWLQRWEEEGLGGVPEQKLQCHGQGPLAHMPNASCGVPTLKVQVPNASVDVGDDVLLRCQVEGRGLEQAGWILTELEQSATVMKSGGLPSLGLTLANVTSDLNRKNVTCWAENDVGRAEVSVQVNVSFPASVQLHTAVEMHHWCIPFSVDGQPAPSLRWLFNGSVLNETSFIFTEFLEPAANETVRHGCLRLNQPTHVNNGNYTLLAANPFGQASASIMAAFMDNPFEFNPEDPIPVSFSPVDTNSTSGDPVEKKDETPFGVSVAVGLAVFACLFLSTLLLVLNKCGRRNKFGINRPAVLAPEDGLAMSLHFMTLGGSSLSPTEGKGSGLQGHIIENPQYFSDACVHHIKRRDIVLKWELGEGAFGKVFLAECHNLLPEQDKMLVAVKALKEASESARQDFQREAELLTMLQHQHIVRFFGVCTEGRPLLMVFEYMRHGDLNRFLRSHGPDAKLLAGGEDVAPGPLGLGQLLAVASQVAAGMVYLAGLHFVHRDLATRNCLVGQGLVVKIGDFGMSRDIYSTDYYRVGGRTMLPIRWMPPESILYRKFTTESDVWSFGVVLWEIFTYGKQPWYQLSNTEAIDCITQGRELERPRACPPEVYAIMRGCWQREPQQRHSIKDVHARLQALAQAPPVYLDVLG

Binder | EC50 [1] | TF-1 cell proliferation (CellTiter-Glo luminescence) EC50 [2] | EC50 [3]
human-canine chimeric Fulranumab (antibody, V domains shown, Human VH/VL of fulranumab fused to canine IgG-B constant regions and canine kappa constant region; expressed in HEK293, Protein A purified; also called Ful Chimeric; Ful Chim) VH: EVQLVESGGGLVQPGGSLRLSCAASGFTLRSYSMNWVRQAPGKGLEWVSYISRSSHTIFYADSVKGRFTISRDNAKNSLYLQMDSLRDEDTAMYYCARVYSSGWHVSDYFDYWGQGILVTVSS VL: AIQLTQSPSSLSASVGDRVTITCRASQGISSALAWYQQKPGKAPKLLIYDASSLESGVPSRFSGSGSGTDFTLTISSLQPEDFATYYCQQFNSYPLTFGGGTKVEIKR | 0.022 nM |  | 
human-canine chimeric Fasinumab (antibody, V domains shown, Human VH/VL of fasinumab fused to canine IgG-B constant regions and canine kappa constant region; also called Fas Chimeric; Fas Chim) VH: QVQLVQSGAEVKKPGASVKVSCKVSGFTLTELSIHWVRQAPGKGLEWMGGFDPEDGETIYAQKFQGRVTMTEDTSTDTAYMELTSLRSEDTAVYYCSTIGVVTNFDNWGQGTLVTVSS VL: DIQMTQSPSSLSASAGDRVTITCRASQAIRNDLGWYQQKPGKAPKRLIYAAFNLQSGVPSRFSGSGSGTEFTLTISSLQPEDLASYYCQQYNRYPWTFGQGTKVEIKR | 122 nM |  | 
B1 |  | 28 nM | 54 nM
